Laboratory results as given in publication PMC11554683, “GNG5 is a novel regulator of Aβ42 production in Alzheimer’s disease” (Cell Death & Disease, 2024).

Target: the molecule itself
Assay: western blot (band sizes); recombinant GNG5 (purity >95%) used to assess anti-GNG5 antibodies (Fig. S3B)

B1: recombinant GNG5 (G protein subunit gamma 5) (natural protein, UniProt P63218 1-68, looked up)
chain: MSGSSSVAAMKKVVQQLRLEAGLNRVKVSQAAADLKQFCLQNAQHDPLLTGVSSSTNPFRPQKVCSFL
notes: G protein subunit gamma 5 (GNG5); Purity >95% is stated; also called purified GNG5; homotrimer-GNG5; source: E. coli BL21 (DE3), purified (HisTrap HP, PD-10)
Q: How did the “stoichiometry N” value turn out when B1 was run?
A: 3
